For this assay, the target named is T1, bovine serum albumin (bovine, UniProt P02769 25-607).
T1 construct: bovine serum albumin; Free BSA in PBS, not the crosslinked BSA shell of the nanoparticles; also called BSA; source: bought: Sigma
Kind of assay: fluorescence polarisation; fluorescence anisotropy of NBD; constant 0.4 uM ATRAM-NBD, increasing BSA (0.25-15 uM); PBS; room temperature; excitation 460 nm, emission 535 nm. As to conditions: both partners purified.

Where no end group is shown, it is not given here. The star is where a group is joined. NBD = O=[N+]([O-])c1ccc(*)c2nonc12

T1 sequence (P02769 25-607): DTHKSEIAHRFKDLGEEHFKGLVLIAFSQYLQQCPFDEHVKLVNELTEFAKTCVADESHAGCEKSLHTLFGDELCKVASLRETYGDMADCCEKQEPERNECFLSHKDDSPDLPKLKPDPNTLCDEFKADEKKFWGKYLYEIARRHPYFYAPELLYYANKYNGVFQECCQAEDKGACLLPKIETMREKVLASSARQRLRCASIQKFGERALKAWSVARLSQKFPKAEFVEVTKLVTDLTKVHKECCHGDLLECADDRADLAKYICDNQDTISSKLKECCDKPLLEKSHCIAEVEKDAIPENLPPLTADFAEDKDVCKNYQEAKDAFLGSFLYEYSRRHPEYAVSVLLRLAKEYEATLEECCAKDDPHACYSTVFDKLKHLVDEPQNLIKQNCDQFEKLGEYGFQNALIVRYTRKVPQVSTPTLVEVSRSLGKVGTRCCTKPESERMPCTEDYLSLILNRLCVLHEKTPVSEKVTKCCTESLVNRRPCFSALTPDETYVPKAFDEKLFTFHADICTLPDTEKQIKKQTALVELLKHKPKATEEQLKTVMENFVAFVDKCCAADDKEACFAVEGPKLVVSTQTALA

B1: NBD-labeled ATRAM (acidity-triggered rational membrane peptide), C-terminal cysteine variant (peptide)
peptide: GLAGLAGLLGLEGLLGLPLGLLEGLWLGLELEC(NBD)N
notes: designed pH-responsive ATRAM peptide, variant with a cysteine (underlined in print) next to the C-terminal residue; also called ATRAM-NBD; source: C-terminal cysteine ATRAM variant labelled with NBD; purified by PD-10 gel filtration and reverse-phase HPLC (parent ATRAM peptide: synthesized by Selleck Chemicals, Fmoc)
Molecule B1 registered a Kd of 295 nM.
